Assay results from patent US20100062011A1.

What was measured:
[1] = biological target: DTL, T-cell epitope peptide derived from diphtheria toxoid; experiment: ELISA, serum dilutions on coated DTL peptide; control serum
[2] = biological target: TetT3L, T-cell epitope peptide derived from tetanus toxoid
[3] = biological target: Peptide having the amino acid sequence of the 298th to 312th of Gag protein derived from HIV-1 (HIV-1); experiment: ELISA, serial 2-fold serum dilutions on coated Gag peptide; negative control serum
[4] = biological target: Amyloid β-peptide consisting of 42 amino acid residues (human); experiment: ELISA, serial 2-fold serum dilutions on coated Aβ (SEQ ID NO:2); negative control serum

Serum of BALB/c mice given neither peptide nor binary mixed vaccine (Experiment 2) (antibody)
antibody titer [1]: 3
antibody titer [2]: 3

Antiserum from BALB/c mice not vaccinated (negative control, Experiment 1) (antibody)
antibody titer [3]: 5.7
antibody titer [4]: 9.2
